We go through one molecule from patent US20050272093A1 (ROCKEFELLER UNIVERSITY, published 2005).

In the assay the target is T1, radiolabeled agitoxin2 (D20C conjugated with tritiated N-ethylmaleimide) (Leiurus quinquestriatus hebraeus, UniProt P46111 1-38).
T1 construct: mature
Nature of the assay: filter binding assay with tritiated agitoxin2.

B1: wild type kcsa K+ channel from Streptomyces lividans (other)
chain: MPPMLSGLLARLVKLLLGRHGSALHWRAAGAATVLLVIVLLAGSYLAVLAERGAPGAQLITYPRALWWSVETATTVGYGDLYPVTLWGRLVAVVVMVAGITSFGLVTAALATWFVGREQERRGHFVRHSEKAAEEAYTRTTRALHERFDRLERMLDDN
Regarding B1, the binding result is reported as “no binding”.
